Publication PMC4197836
pKd: −log10 of the molar value. Like-named read-outs stand apart in the source and are kept apart here.

Experiments:
Assay in all cases: AlphaScreen or HTRF
[1] = target: His6-tagged MLV IN (Moloney Murine Leukemia Virus)
[2] = target: His6-tagged MLV IN (Moloney Murine Leukemia Virus); remark: listed apart in the source
[3] = target: GST-tagged mBRD4ET (aa 601-685) (mouse) (UniProt Q9ESU6)

Chain of His6-tagged MLV IN (Moloney Murine Leukemia Virus) (P03355 1331-1738 limits assumed): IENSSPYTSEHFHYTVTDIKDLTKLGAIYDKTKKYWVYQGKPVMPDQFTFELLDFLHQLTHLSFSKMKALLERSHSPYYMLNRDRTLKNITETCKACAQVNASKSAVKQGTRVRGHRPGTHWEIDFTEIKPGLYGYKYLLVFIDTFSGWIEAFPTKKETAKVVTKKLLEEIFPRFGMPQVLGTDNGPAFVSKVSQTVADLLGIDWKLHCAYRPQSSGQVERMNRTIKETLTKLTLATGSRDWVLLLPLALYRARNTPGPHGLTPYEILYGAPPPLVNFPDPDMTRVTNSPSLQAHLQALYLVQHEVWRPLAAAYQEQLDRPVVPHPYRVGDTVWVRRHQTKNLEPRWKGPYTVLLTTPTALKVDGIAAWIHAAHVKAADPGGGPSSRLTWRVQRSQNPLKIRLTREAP

Row | Substance | pKd [1] | pKd [2] | pKd [3]
1 | GST-tagged mBRD4ET (aa 601-685) (from UniProt Q9ESU6 601-685) (domain or fragment) | 7.23 | 8.07 | 
2 | GST-tagged mBRD4_(ETSEED) (aa 601-721) (from UniProt Q9ESU6 601-721) (domain or fragment) | 8.07 | 7.23 | 
3 | His6-tagged MLV IN (enzyme) |  |  | 7.25
4 | MBP-fused BRD2 ET domain (domain or fragment) |  | 9.22 | 
5 | MBP-fused BRD3 ET domain (domain or fragment) |  | 9.01 | 
6 | MBP-fused BRD4 ET domain (domain or fragment) |  | 9.39 | 
